The source of these data is publication PMC10557602 (bioRxiv, 2023).

The target in this assay is SARS-CoV-2 nsp12 (SARS-CoV-2, UniProt P0DTD1). As to the kind of experiment: cryo-EM structure.

B1: SARS-CoV-2 nsp9 (natural protein)
chain: NNELSPVALRQMSCAAGTTQTACTDDNALAYYNTTKGGRFVLALLSDLQDLKWARFPKSDGTGTIYTELEPPCRFVTDTPKGPKVKYLYFIKGLNNLNRGMVLGSLAATVRLQ
B1: the binding result is “binds”.

B2: RNAylated-nsp9 (20mer RNA) (natural protein)
chain: NNELSPVALRQMSCAAGTTQTACTDDNALAYYNTTKGGRFVLALLSDLQDLKWARFPKSDGTGTIYTELEPPCRFVTDTPKGPKVKYLYFIKGLNNLNRGMVLGSLAATVRLQ
B2: the binding result is given as “binds”.
